# Read-outs that look alike come from different tables or passages of the source.
# B1: RFC: replication factor C complex of KOD-mRFCS and KOD-RFCL derived from KOD1 (protein)
# chain 1: MSEEVKEVKILEKPWVEKYRPQRLEDIVGQDHIVKRLKHYVKTGSMPHLLFAGPPGVGKTTAALALARELFGENWRHNFLELNASDERGINVIREKVKEFARTKPIGGASFKIIFLDEADALTQDAQQALRRTMEMFSNNVRFILSCNYSSKIIEPIQSRCAIFRFRPLRDEDIAKRIRYIAENEGLELTEEGLQAILYVAEGDLRRAINVLQAAAALDTKITDENVFLVASRARPEDVREMMTLALEGNFLKAREKLRDILLRQGLSGEDVLIQMHKEVFNLPIPEDKKVALADKIGEYNFRLVEGANEMIQLEALLAQFTIMGK
# chain 2: MTEVPWVEKYRPRKLSEIVNQEKALEQVRAWVEAWLHGNPPKKKALLLAGPPGVGKTTTVYALANEYGFEVIELNASDERTYEKIERYVQAAYTMDILGKRRKLIFLDEADNIEPSGAREIAKLIDKARNPIIMSANHYWEVPREIRNKAQIVEYKRLTQRDIIKALVRILKREGLEVPKEVLYEIAKRANGDLRAAVNDLQTVVTGGVEDAVEVLAYRDTEKSVFQALAQLFATDNAKRAKLAVLGVDMMPNELLQWIDENVPYVYYRPEDIARAYEALSRADIYLGRAQRTGNYGLWKYATDMMTAGVAVAGIKKKGFVKIYPPKTIKLLTESKEERSLRDSVIKKIMSEMHMAKLEAIETLRYLRVIFENNPDLAAHFVVFLDLSEKEVEFITGDKEKAKTIWAKSMNIEKKLKKEGELEARAKEAERRVEAAEEEETMEAGEPEEELEEVEEEELTEEELEEAEEEIETVGKKEKPEKEKTKKGKQATLFDFLKK
# B2: KOD DNA polymerase: Thermococcus kodakaraensis KOD1-derived thermostable α-type DNA polymerase, SEQ ID NO: 1 (protein)
# chain: MILDTDYITEDGKPVIRIFKKENGEFKIEYDRTFEPYFYALLKDDSAIEEVKKITAERHGTVVTVKRVEKVQKKFLGRPVEVWKLYFTHPQDVPAIRDKIREHPAVIDIYEYDIPFAKRYLIDKGLVPMEGDEELKMLAFDIETLYHEGEEFAEGPILMISYADEEGARVITWKNVDLPYVDVVSTEREMIKRFLRVVKEKDPDVLITYNGDNFDFAYLKKRCEKLGINFALGRDGSEPKIQRMGDRFAVEVKGRIHFDLYPVIRRTINLPTYTLEAVYEAVFGQPKEKVYAEEITTAWETGENLERVARYSMEDAKVTYELGKEFLPMEAQLSRLIGQSLWDVSRSSTGNLVEWFLLRKAYERNELAPNKPDEKELARRRQSYEGGYVKEPERGLWENIVYLDFRSLYPSIIITHNVSPDTLNREGCKEYDVAPQVGHRFCKDFPGFIPSLLGDLLEERQKIKKKMKATIDPIERKLLDYRQRAIKILANSYYGYYGYARARWYCKECAESVTAWGREYITMTIKEIEEKYGFKVIYSDTDGFFATIPGADAETVKKKAMEFLKYINAKLPGALELEYEGFYKRGFFVTKKKYAVIDEEGKITTRGLEIVRRDWSEIAKETQARVLEALLKDGDVEKAVRIVKEVTEKLSKYEVPPEKLVIHEQITRDLKDYKATGPHVAVAKRLAARGVKIRPGTVISYIVLKGSGRIGDRAIPFDEFDPTKHKYDAEYYIENQVLPAVERILRAFGYRKEDLRYQKTRQVGLSAWLKPKGT
# modifications: Thermococcus kodakaraensis KOD1; KOD DNA polymerase
# B3: PCNA: proliferating cell nuclear antigen derived from Thermococcus kodakaraensis KOD1, SEQ ID NO: 2 (protein)
# chain: MPFEVVFDGAKEFADLIATASNLIDEAAFKFTEEGISMRAMDPSRVVLIDLNLPESIFSKYEVEEPETIGINMDQFKKILKRGKAKDTLILRKGDENFLEITFEGTAKRTFRLPLIDVEELELELPELPFTAKVVLLGEVLKEGIKDASLVSDAIKFIAKENEFTMKAEGETNEVEIRLTLEDEGLLDLEVEEETKSAYGISYLSDMVKGIGKADEVILRFGNEMPLQMEYMIRDEGRLTFLLAPRVEE
# modifications: Thermococcus kodakaraensis KOD1; KOD-PCNA
# Tests used:
# [1] = target: T1, KOD-plus DNA polymerase (Thermococcus kodakarensis, UniProt P77933, DEL407-766/DEL853-1389); format: biochemical, Thermococcus kodakaraensis KOD1; conditions: 2 mM potassium oxalate, FIG. 14
# T1 construct: purchased Toyobo
# Method: Oxalate ion and DMSO were investigated for their synergistic effectiveness for hot start enzyme in amplification of a target DNA which is difficult to amplify by usual PCR, using a KOD-plus DNA polymerase, i.e., hot start enzyme. Potassium oxalate was added to the PCR buffer supplied with KOD-plus (TOYOBO CO., LTD.) to attain a final concentration of 2 mM. Also used were 0.2 mM dNTPs and […] of a pair of primers of SEQ ID Nos:18 and 19, and 1.0 U KOD-plus DNA polymerase. 0.5 μL of cDNA obtained by reverse transcription of 500 ng of total RNA derived from human cell line K562 with ThermoScript (Invitrogen) was used as a template. This reaction mixture was subjected to PCR by using GeneAmp2400 (PE Applied Biosystems) to investigate the influence on the PCR results of varying the concentration of DMSO. The PCR conditions were as follows: 1 preliminary reaction of 94° C. for 2 minutes, and then 40 cycles of 94° C. for 15 seconds, 60° C. for 30 seconds and 68° C. for 9 minutes.
# [2] = target: T2, KOD DNA polymerase (Thermococcus kodakarensis, UniProt P77933, DEL407-766/DEL853-1389); test: PCR of 3.6 kb globin cluster DNA using KOD DNA polymerase with PCNA/RFC (Examples 3-12 to 3-14); format: biochemical, Thermococcus kodakaraensis KOD1
# Method: The effect produced by the addition of KOD-PCNA protein on PCR amplification of a 3.6 kb DNA in a human […] cluster was investigated. The PCR buffer supplied with KOD-Plus (TOYOBO CO.,LTD), 0.2 mM dNTPs and 0.3 μM of a pair of primers of SEQ ID Nos:60 and 61 were used. 1 U KOD DNA polymerase was used as a heat-resistant DNA polymerase, and genomic DNA derived from human cell line K562 was used as a template. This reaction mixture was subjected to PCR using GeneAmp2400 (PE Applied Biosystems) to investigate the difference in the PCR results caused by the presence or absence of PCNA. The PCR conditions were as follows: 1 preliminary reaction of 94° C. for 2 minutes; and then 35 cycles of 94° C. for 20 seconds, 60° C. for 30 seconds and 68° C. for 4 minutes.
# The effect produced by the addition of the KOD-RFC complex was investigated with the same target DNA and reaction solution as in Example 3-12. The amount of RFC effective for PCR was investigate by using 1 ng of genomic DNA derived from human cell line K562 as a template.
# The effect produced by the addition of KOD-PCNA protein and KOD-RFC complex was investigated with the same target DNA and reaction solution as in Example 3-12. 1 ng of genomic DNA derived from human cell line K562 was used as a template and their optimal ratios were investigated.
# [3] = system: KOD Dash DNA polymerase; test: PCR using mixed-type KOD Dash DNA polymerase with PCNA/RFC (Example 3-15); format: biochemical, Thermococcus kodakaraensis KOD1; conditions: 1 ng template, FIG. 34
# Method: The effect produced by the combined use of KOD-PCNA protein and the KOD-RFC complex in PCR using a mixture of two kinds of DNA polymerases was investigated with the same target DNA and reaction solution as in Example 3-12
# 1 ng of genomic DNA derived from human cell line K562 was used as a template. KOD Dash DNA polymerase, which is a mixture of KOD DNA polymerase and KOD (exo-) DNA polymerase which has lost KOD 3′-5′ exonuclease activity, was used as the mixed-type DNA polymerase.
# [4] = system: pMol 21; conditions: PCR product fidelity, rpsL / pMol 21 method; cited from earlier work
# [5] = target: T2, KOD DNA polymerase; test: DNA elongation by KOD DNA polymerase on primed M13 mp18 DNA (Examples 3-10, 3-11); format: biochemical, Thermococcus kodakaraensis KOD1; conditions: for elongation (size of synthesized DNA): 75° C.
# Method: 150 fmol of KOD DNA polymerase was reacted with 1.5 pmol of DNA obtained by annealing an M13 P7 primer (SEQ ID NO:59) to M13 mp18 DNA (circular single-stranded DNA) to determine processivity. 450 fmol, 1.5 pmol, 4.5 pmol and 15 pmol samples of KOD-PCNA obtained in Example 3-6 were added to reaction buffer solutions [20 mM Tris-HCl (pH 7.5 at 75° C.), 10 mM KCl, 6 mM (NH4)2SO4, 2 mM MgCl2, 0.1% Triton X-100, 10 μg/ml BSA]. The mixtures were reacted at 75° C. for varying times: 30 seconds, 60 seconds and 120 seconds, to investigate their degrees of elongation. In the course of the elongation reaction DNA samples were withdrawn at the above reaction times and added to the same quantity of a stop solution (60 mM EDTA, […], 0.1% BPB, 30% glycerol). The obtained DNA samples were separated by 1% alkaline agarose electrophoresis and analyzed to determine the sizes of the synthesized DNA.
# KOD DNA polymerase reactions were conducted in a similar manner to Example 3-10 either in the presence of KOD-PCNA or in the copresence of KOD-PCNA and KOD-RFC by using an circular single stranded DNA, which was annealed with a primer, as a substrate. […] This is presumably because almost all the KOD DNA polymerase molecules were available to react with PCNA in the presence of the RFC complex.
# [6] = PCNA added in 30 times the molar amount of DNA polymerase
molecule,measurement,setting,value
"C[S+](C)[O-] [DMSO, dimethylsulfoxide]",amplification of target DNA,[1]; 5% DMSO,sufficient amplification was observed
same,amplification of target DNA,"[1]; in the presence of DMSO, cDNA template",an increase in amplification amount was observed
B1,amplification of the target DNA,"[2]; 1.5 pmol further added to 10 fmol of PCNA, 1 ng template, FIG. 33",sufficient amplification was observed
same,amplification of the target DNA,[3]; further addition of RFC to PCNA,amplification of the target DNA was greatly clarified
B2,mutation rate,[4],≤ 0.1%
same,processivity,[5]; no PCNA added,≥ 5 kb
same,elongation (size of synthesized DNA),"[5]; no PCNA added, reaction time 30 seconds",1.2 kb
same,elongation (size of synthesized DNA),"[5]; no PCNA added, reaction time 60 seconds",2.5 kb
same,elongation (size of synthesized DNA),"[5]; no PCNA added, reaction time 120 seconds",5 kb
same,elongation rate,"[5]; no PCNA, 1.5 pmol substrate DNA relative to 150 fmol DNA polymerase",about 40 bases per second
B3,amplification of the target DNA,"[2]; 10 fmol of PCNA alone, 1 ng template, FIG. 33",amplification of the target DNA was barely observed together with a smear
same,amplification of the target DNA,"[2]; 30 fmol of PCNA, 1 ng template DNA, FIG. 31",amplification of the target DNA was observed
same,amplification of the target DNA,"[2]; PCNA added, 3 ng template DNA, FIG. 31",amplification of the target DNA was more clearly observed
same,increase of PCR sensitivity,[2]; addition of PCNA,at least 3 fold
same,amplification of the target DNA,[3]; addition of PCNA,amplification of the target DNA was made somewhat clearer
same,DNA elongation rate of KOD DNA polymerase,[5]; [6],120 bases per second
same,DNA elongation rate relative to the sample with no PCNA added,[5]; [6],about 3 times
same,DNA elongation rate,"[5]; only PCNA added, FIG. 30",an increase in the DNA elongation rate was observed
same,increase of DNA elongation rate compared to single use of KOD DNA polymerase,[5]; using KOD-PCNA,several fold
